These results are taken from patent US20240228543.

B1: CYLD (protein)
chain: MSSGLWSQEKVTSPYWEERIFYLLLQECSVTDKQTQKLLKVPKGSIGQYIQDRSVGHSRIPSAKGKKNQIGLKILEQPHAVLFVDEKDVVEINEKFTELLLAITNCEERFSLFKNRNRLSKGLQIDVGCPVKVQLRSGEEKFPGVVRFRGPLLAERTVSGIFFGVELLEEGRGQGFTDGVYQGKQLFQCDEDCGVFVALDKLELIEDDDTALESDYAGPGDTMQVELPPLEINSRVSLKVGETIESGTVIFCDVLPGKESLGYFVGVDMDNPIGNWDGRFDGVQLCSFACVESTILLHINDIIPALSESVTQERRPPKLAFMSRGVGDKGSSSHNKPKATGSTSDPGNRNRSELFYTLNGSSVDSQPQSKSKNTWYIDEVAEDPAKSLTEISTDFDRSSPPLQPPPVNSLTTENRFHSLPFSLTKMPNTNGSIGHSPLSLSAQSVMEELNTAPVQESPPLAMPPGNSHGLEVGSLAEVKENPPFYGVIRWIGQPPGLNEVLAGLELEDECAGCTDGTFRGTRYFTCALKKALFVKLKSCRPDSRFASLQPVSNQIERCNSLAFGGYLSEVVEENTPPKMEKEGLEIMIGKKKGIQGHYNSCYLDSTLFCLFAFSSVLDTVLLRPKEKNDVEYYSETQELLRTEIVNPLRIYGYVCATKIMKLRKILEKVEAASGFTSEEKDPEEFLNILFHHILRVEPLLKIRSAGQKVQDCYFYQIFMEKNEKVGVPTIQQLLEWSFINSNLKFAEAPSCLIIQMPRFGKDFKLFKKIFPSLELNITDLLEDTPRQCRICGGLAMYECRECYDDPDISAGKIKQFCKTCNTQVHLHPKRLNHKYNPVSLPKDLPDWDWRHGCIPCQNMELFAVLCIETSHYVAFVKYGKDDSAWLFFDSMADRDGGQNGFNIPQVTPCPEVGEYLKMSLEDLHSLDSRRIQGCARRLLCDAYMCMYQSPTMSLYK
As for B1, the “ubiquitin-AMC cleavage with 1 µM hD1” value in the series with hD1 cyclic peptide is “the hD1 peptide had no effect on USP7CD or CYLD activity”.

B2: USP7 catalytic domain (protein)
chain: KKHTGYVGLKNQGATCYMNSLLQTLFFTNQLRKAVYMMPTEGDDSSKSVPLALQRVFYELQHSDKPVGTKKLTKSFGWETLDSFMQHDVQELCRVLLDNVENKMKGTCVEGTIPKLFRGKMVSYIQCKEVDYRSDRREDYYDIQLSIKGKKNIFESFVDYVAVEQLDGDNKYDAGEHGLQEAEKGVKFLTLPPVLHLQLMRFMYDPQTDQNIKINDRFEFPEQLPLDEFLQKTDPKDPANYILHAVLVHSGDNHGGHYVVYLNPKGDGKWCKFDDDVVSRCTKEEAIEHNYGGHDDDLSVRHCTNAYMLVYIRESKLSEVLQAVTDHDIPQQLVERLQEEKRIEAQKRKERQE
For the protein B2, in the series with hD1 cyclic peptide, the “ubiquitin-AMC cleavage with 1 µM hD1” value is on record as “the hD1 peptide had no effect on USP7CD or CYLD activity”.

B3: human SAGA deubiquitinating module (USP22/ATXN7L3/ENY2/ATXN7), construct lacking the Avi tag, 6xHis tag cleaved (protein)
chain 1: MVSRPEPEGEAMDAELAVAPPGCSHLGSFKVDNWKQNLRAIYQCFVWSGTAEARKRKAKSCICHVCGVHLNRLHSCLYCVFFGCFTKKHIHEHAKAKRHNLAIDLMYGGIYCFLCQDYIYDKDMEIIAKEEQRKAWKMQGVGEKFSTWEPTKRELELLKHNPKRRKITSNCTIGLRGLINLGNTCFMNCIVQALTHTPLLRDFFLSDRHRCEMQSPSSCLVCEMSSLFQEFYSGHRSPHIPYKLLHLVWTHARHLAGYEQQDAHEFLIAALDVLHRHCKGDDNGKKANNPNHCNCIIDQIFTGGLQSDVTCQVCHGVSTTIDPFWDISLDLPGSSTPFWPLSPGSEGNVVNGESHVSGTTTLTDCLRRFTRPEHLGSSAKIKCSGCHSYQESTKQLTMKKLPIVACFHLKRFEHSAKLRRKITTYVSFPLELDMTPFMASSKESRMNGQYQQPTDSLNNDNKYSLFAVVNHQGTLESGHYTSFIRQHKDQWFKCDDAIITKASIKDVLDSEGYLLFYHKQFLEYE
chain 2: ERAADDVRGEPRRAAAAAGGAAAAAARQQQQQQQQQQPPPPQPQRQQHPPPPPRRTRPEDGGPGAASTSAAAMATVGERRPLPSPEVMLGQSWNLWVEASKLPGKDGTELDESFKEFGKNREVMGLCREDMPIFGFCPAHDDFYLVVCN
chain 3: MKMEEMSLSGLDNSKLEAIAQEIYADLVEDSCLGFCFEVHRAVKCGYFFLDDTDPDSMKDFEIVDQPGLDIFGQVFNQWKSKECVCPNCSRSIAASRFAPHLEKCLGMGRNSSRIANRRIANSNNMNKSESDQEDNDDINDNDWSYGSEKKAKKRKSDKNPNSPRRSKSLKHKNGELSNSDPFKYNNSTGISYETLGPEELRSLLTTQCGVISEHTKKMCTRSLRCPQHTDEQRRTVRIYFLGPSAVLPEVESSLDNDSFDMTDSQALISRLQWDGSSDLSPSDSGSSKTSENQGWGLGTNSSESRKTKKKKSHLSLVGTASGLGSNKKKKPKPPAPPTPSIYDDIN
chain 4: MVVSKMNKDAQMRAAINQKLIETGERERLKELLRAKLIECGWKDQLKAHCKEVIKEKGLEHVTVDDLVAEITPKGRALVPDSVKKELLQRIRTFLAQHASL
Consider B3, for which the “Ub-AMC cleavage with 1 µM hD1” value in the series with hD1 cyclic peptide is reported as “the USP22/DUB module has no detectable activity under these conditions”. Besides, the “cleavage of nucleosomal H2B-Ub (200 nM hDUBm, 1 µM peptide)” value in the series with hD1 cyclic peptide was “With the exception of hD4, all of the cyclic peptide leads were potent inhibitors of nucleosomal H2B-Ub cleavage by the human DUB module”; with hD2 cyclic peptide it was “With the exception of hD4, all of the cyclic peptide leads were potent inhibitors of nucleosomal H2B-Ub cleavage by the human DUB module”; in the series with hL1 cyclic peptide, “With the exception of hD4, all of the cyclic peptide leads were potent inhibitors of nucleosomal H2B-Ub cleavage by the human DUB module”; with hD5 cyclic peptide it was “With the exception of hD4, all of the cyclic peptide leads were potent inhibitors of nucleosomal H2B-Ub cleavage by the human DUB module”; with hD3 cyclic peptide, “With the exception of hD4, all of the cyclic peptide leads were potent inhibitors of nucleosomal H2B-Ub cleavage by the human DUB module”; in the series with hD4 cyclic peptide, “also showed very weak inhibition of hDUBm on nucleosomal H2B-Ub”. In addition, the “Ub-AMC cleavage over a range of yD1 concentrations” value in the series with yD1 cyclic peptide is “yD1 also did not inhibit the human DUBm”.

B4: USP30 (protein)
chain: TERKKRRKGLVPGLVNLGNTCFMNSLLQGLSACPAFIRWLEEFTSQYSRDQKEPPSHQYLSLTLLHLLKALSCQEVTDDEVLDASCLLDVLRMYRWQISSFEEQDAHELFHVITSSLEDERDRQPRVTHLFDVHSLEQQSEITPKQITCRTRGSPHPTSNHWKSQHPFHGRLTSNMVCKHCEHQSPVRFDTFDSLSLSIPAATWGHPLTLDHCLHHFISSESVRDVVCDNCTKIEAKGTLNGEKVEHQRTTFVKQLKLGKLPQCLCIHLQRLSWSSHGTPLKRHEHVQFNEFLMMDIYKYHLLGHKPSQHNPKLNKNPGPTLELQDGPGAPTPVLNQPGAPKTQIFMNGACSPSLLPTLSAPMPFPLPVVPDYSSSTYLFRLMAVVVHHGDMHSGHFVTYRRSPPSARNPLSTSNQWLWVSDDTVRKASLQEVLSSSAYLLFYERVLSRMQHQSQECKSEE
For the protein B4, the “ubiquitin-AMC cleavage with 1 µM hD1” value in the series with hD1 cyclic peptide was “only a very modest (˜15%) effect on USP30”.

B5: yeast SAGA DUB module (Ubp8/Sgf11/Sgf73 1-105/Sus1), construct lacking the Avi tag, 6xHis tag cleaved (protein)
chain 1: MSICPHIQQVFQNEKSKDGVLKTCNAARYILNHSVPKEKFLNTMKCGTCHEINSGATFMCLQCGFCGCWNHSHFLSHSKQIGHIFGINSNNGLLFCFKCEDYIGNIDLINDAILAKYWDDVCTKTMVPSMERRDGLSGLINMGSTCFMSSILQCLIHNPYFIRHSMSQIHSNNCKVRSPDKCFSCALDKIVHELYGALNTKQASSSSTSTNRQTGFIYLLTCAWKINQNLAGYSQQDAHEFWQFIINQIHQSYVLDLPNAKEVSRANNKQCECIVHTVFEGSLESSIVCPGCQNNSKTTIDPFLDLSLDIKDKKKLYECLDSFHKKEQLKDFNYHCGECNSTQDAIKQLGIHKLPSVLVLQLKRFEHLLNGSNRKLDDFIEFPTYLNMKNYCSTKEKDKHSENGKVPDIIYELIGIVSHKGTVNEGHYIAFCKISGGQWFKFNDSMVSSISQEEVLKEQAYLLFYTIRQVN
chain 2: MTEETITIDSISNGILNNLLTTLIQDIVARETTQQQLLKTRYPDLRSYYFDPNGSLDINGLQKQQESSQYIHCENCGRDVSANRLAAHLQRCLSRGARR
chain 3: MRSGDAEIKGIKPKVIEEYSLSQGSGPSNDSWKSLMSSAKDTPLQYDHMNRESLKKYFNPNAQLIEDPLDKPIQYRVCEKCGKPLALTAIVDHLENHCAGASGKS
chain 4: MTMDTAQLKSQIQQYLVESGNYELISNELKARLLQEGWVDKVKDLTKSEMNINESTNFTQILSTVEPKALEMVSDSTRETVLKQIREFLEEIVDTQ
As to B5, in the series with yD1 cyclic peptide, the Ub-AMC cleavage entry is listed as “yD1 did not inhibit activity of the yeast DUB module” and the “Ub-AMC cleavage, 50 nM yeast DUB module with 2.5 µM yD1” value is recorded as “Rather than inhibition, yD1 produced a slight increase in cleavage rates”.

B6: USP27x alone (DUBprofiler panel) (protein)
chain: MCKDYVYDKDIEQIAKEEQGEALKLQASTSTEVSHQQCSVPGLGEKFPTWETTKPELELLGHNPRRRRITSSFTIGLRGLINLGNTCFMNCIVQALTHTPILRDFFLSDRHRCEMPSPELCLVCEMSSLFRELYSGNPSPHVPYKLLHLVWIHARHLAGYRQQDAHEFLIAALDVLHRHCKGDDVGKAANNPNHCNCIIDQIFTGGLQSDVTCQACHGVSTTIDPCWDISLDLPGSCTSFWPMSPGRESSVNGESHIPGITTLTDCLRRFTRPEHLGSSAKIKCGSCQSYQESTKQLTMNKLPVVACFHFKRFEHSAKQRRKITTYISFPLELDMTPFMASSKESRMNGQLQLPTNSGNNENKYSLFAVVNHQGTLESGHYTSFIRHHKDQWFKCDDAVITKASIKDVLDSEGYLLFYHKQVLEHESEKVKEMNTQAY
With B6, the “ubiquitin-rhodamine(110)-glycine cleavage with 1 µM hD1 (DUBprofiler)” value with hD1 cyclic peptide was “USP27x, whose activity was reduced by ˜50%”.
